Assay results reported in PMC12328794 (2025).

Target: cytosolic domain of human Fis1 (Fis1_ΔTM, residues 1−123) (human, UniProt Q9Y3D6 1-123)
Experiment: SPR

B1: Bap31_CC2 D224K (domain or fragment)
chain: LDVGNAEVKLEEENRSLKADLQKLKDELASTKQKLEKAENQVLAMRKQSEGLTKEYKRLLEEHAKLQAAVDGPMDKKEE
Question: How did the Kd turn out when B1 was run?
Answer: The Kd was 156 µM.
